Data from patent publication US20140303084.
Positions count from the first letter of the chain named.

Tests used:
[1] = test system: T1, RRAPGKLTCLASYCWLF WTGWC RDTASHACDS
T1 sequence: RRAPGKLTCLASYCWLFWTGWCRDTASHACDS

[2] = test system: T2, LRQRLAKTCVASYCWLFSLVAS
T2 sequence: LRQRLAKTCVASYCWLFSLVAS

[3] = test system: T3, RRAPGCLTALASYAWLCWTGIA-CONH2
T3 sequence: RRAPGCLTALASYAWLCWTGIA

[4] = test system: T4, RRAPGKLT-Lys-LASY-Asp-WLFWTGIA-CONH2
T4 sequence: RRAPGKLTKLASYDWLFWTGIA

[5] = test system: T5, RRAAGKLQCLASYCWLFWTGIA
T5 sequence: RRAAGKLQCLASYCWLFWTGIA

[6] = test system: T6, RRAPGKLTCLASYCWLF WRGFA ERASEDTNQG
T6 sequence: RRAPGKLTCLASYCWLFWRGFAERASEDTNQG

[7] = test system: T7, RRAPGKLTCLASYCWLF WAGFA ASTLAPAHHQ
T7 sequence: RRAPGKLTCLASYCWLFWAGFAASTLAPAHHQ

[8] = test system: T8, KLTCLASYCWLA
T8 sequence: KLTCLASYCWLA

[9] = test system: T9, SKQGRPIAPDrRAAGKLTCLASYCWLFWTGIA
T9 sequence: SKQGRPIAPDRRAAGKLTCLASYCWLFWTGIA

[10] = test system: T10, RRAPGKLT-Asp-LASY-Orn-WLFWTGIA-COOH
T10 sequence: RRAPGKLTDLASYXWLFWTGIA

[11] = test system: T11, PSGWAGWAPG RREPG KLTCLASYCWLFWTGIA
T11 sequence: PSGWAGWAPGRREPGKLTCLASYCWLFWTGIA

[12] = test system: T12, PNLLRVRTSE VRNPG KLTCLASYCWLFWTGIA
T12 sequence: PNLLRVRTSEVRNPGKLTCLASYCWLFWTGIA

[13] = test system: T13, SKQGRPISSDrRASGKLTCLASYCWLFWTGIA
T13 sequence: T9 sequence with A8S, P9S, A14S

[14] = test system: T14, R-k-MeLeu-TCLASYCWLF
T14 sequence: RKLTCLASYCWLF

[15] = test system: T15, KLTCLASYC
T15 sequence: KLTCLASYC

[16] = test system: T16, RRAPGKLTCLASYCWLF WTGLA STLYKTYTRE
T16 sequence: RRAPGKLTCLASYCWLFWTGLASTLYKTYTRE

[17] = test system: T17, EGRRDKLTCLASYCWLVGHGQH
T17 sequence: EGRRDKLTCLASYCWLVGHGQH

[18] = test system: T18, QAKMLKLTCLASYCWLFWVTRS
T18 sequence: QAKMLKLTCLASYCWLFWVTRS

[19] = test system: T19, AKQGRPISPDrRAAGKLTCLASYCWLFWTGIA
T19 sequence: T9 sequence with S1A, A8S

[20] = test system: T20, RRAPGKLTCLASYCWLF WTGYA SGKPSRVYVI
T20 sequence: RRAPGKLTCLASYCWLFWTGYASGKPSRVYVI

[21] = test system: T21, RRAPGKLTCLASYCWLF WTTYA SYATKPADTT
T21 sequence: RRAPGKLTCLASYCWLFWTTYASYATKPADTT

[22] = test system: T22, k-MeLeu-TCLAS-(Y-OMe)-CWLF
T22 sequence: KLTCLASYCWLF

[23] = test system: T23, RRAPGKLTCLASYCWLF WTGLA PGRGQGGVAG
T23 sequence: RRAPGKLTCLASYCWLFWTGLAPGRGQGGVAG

[24] = test system: T24, AVVRGQEPTH RRTPG KLTCLASYCWLFWTGIA
T24 sequence: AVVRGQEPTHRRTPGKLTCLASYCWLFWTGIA

[25] = test system: T25, RRAPGKLTCLASYCWLF STPVA RKSLRRHQPT
T25 sequence: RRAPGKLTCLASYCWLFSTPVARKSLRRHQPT

[26] = test system: T26, compound 25
T26 sequence: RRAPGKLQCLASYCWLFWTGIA

[27] = test system: T27, LTCLASYCWLF
T27 sequence: LTCLASYCWLF

[28] = test system: T28, KLT-Glu-LASY-Lys-WLF
T28 sequence: KLTELASYKWLF

[29] = test system: T29, SKQGRPISPDrRAAGKLTCLASYCWLF
T29 sequence: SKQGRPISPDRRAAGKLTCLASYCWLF

[30] = test system: T30, RSQGRKLTCLASYCWLFLVVHR
T30 sequence: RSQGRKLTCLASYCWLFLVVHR

[31] = test system: T31, RRAPGKLT-Asp-LASY-Lys-WLFWTGIA-COOH
T31 sequence: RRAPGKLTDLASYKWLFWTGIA

[32] = test system: T32, KLTCLASYCALF
T32 sequence: KLTCLASYCALF

[33] = test system: T33, RRAPGKLTCLASYCWLF WSGIA PQPPNMRPSV
T33 sequence: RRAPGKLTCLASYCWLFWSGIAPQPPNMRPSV

[34] = test system: T34, RRAPGKLtCLASYCWLFWTGIA
T34 sequence: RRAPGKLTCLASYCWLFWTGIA

[35] = test system: T35, PRIRSVGPGSRSASGKLTCLASYCWLFWTGIA
T35 sequence: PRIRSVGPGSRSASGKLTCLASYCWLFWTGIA

[36] = test system: T36, RRAPGKLTCLASYCWLFWTGIA-PEG4
T36 sequence: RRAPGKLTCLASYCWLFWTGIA

[37] = test system: T37, RRAPGKLTCLASYCWLF QTGWA YWGYRQHPGS
T37 sequence: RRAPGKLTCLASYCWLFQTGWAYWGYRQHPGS

[38] = test system: T38, RRKPGKLQCLASYCWLFWTGIA
T38 sequence: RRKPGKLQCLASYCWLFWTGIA

[39] = test system: T39, QRAGRVARLH RRAPN KLTCLASYCWLFWTGIA
T39 sequence: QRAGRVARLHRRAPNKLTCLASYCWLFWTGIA

[40] = test system: T40, RRAPGKLTCLASYCWLF LGGIA PEGASTRTAN
T40 sequence: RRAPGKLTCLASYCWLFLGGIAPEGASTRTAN

[41] = test system: T41, RRAPGKLTCLASyCWLFWTGIA
T41 sequence: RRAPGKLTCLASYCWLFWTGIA

[42] = test system: T42, KLTCLVSYCWLF
T42 sequence: KLTCLVSYCWLF

[43] = test system: T43, compound C
T43 sequence: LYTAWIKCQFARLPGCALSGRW

[44] = test system: T44, KLTCLASYCWAF
T44 sequence: KLTCLASYCWAF

[45] = test system: T45, AQWVGRGQWA IRAPG KLTCLASYCWLFWTGIA
T45 sequence: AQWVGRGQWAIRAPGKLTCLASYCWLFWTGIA

[46] = test system: T46, KLTCLASYCQLF
T46 sequence: KLTCLASYCQLF

[47] = test system: T47, KLT-Dab-LASY-Glu-WLF
T47 sequence: KLTXLASYEWLF

In the case of human Factor IXa, the “Vmax, FXa generation assay; (++) means 1-2” value (from here on “Vmax … (++) means 1-2”) [1] is reported as “(++)”, the Vmax, FXa generation assay [2] is reported as over 1.5 and the “Vmax … (++) means 1-2” value [3] is reported as “(++)”. For the same substance, the “Vmax … (++) means 1-2” value [4] was “(++)”, the Vmax, FXa generation assay [5] was over 2 and the Vmax, FXa generation assay [6] was over 2. It also gave a Vmax, FXa generation assay [7] of over 2, a Vmax, FXa generation assay [8] of over 3 and a Vmax, FXa generation assay [9] of over 3. The “Vmax … (++) means 1-2” value [10] was “(++)”, the Vmax, FXa generation assay [11] was over 2 and the “Vmax … (++) means 1-2” value [12] was “(++)”. It also gave a Vmax, FXa generation assay [13] of over 3, a Vmax, FXa generation assay [14] of over 3 and a Vmax, FXa generation assay [15] of over 3. The “Vmax … (++) means 1-2” value [16] was “(++)”, the Vmax, FXa generation assay [17] was over 0.3 and the Vmax, FXa generation assay [18] was over 2. It also gave a Vmax, FXa generation assay [19] of over 3, a Vmax, FXa generation assay [20] of over 3 and a Vmax, FXa generation assay [21] of over 2. For the same substance, the Vmax, FXa generation assay [22] was over 3, the Vmax, FXa generation assay [23] was over 3 and the Vmax, FXa generation assay [24] was over 3. The Vmax, FXa generation assay [25] was over 3, the Vmax, FXa generation assay with hFIXa [26] was over 2 and the “Vmax … (++) means 1-2” value [27] was “(++)”. For the same substance, the “Vmax … (++) means 1-2” value [28] was “(++)”, the Vmax, FXa generation assay [29] was over 3 and the “Vmax … (++) means 1-2” value [30] was “(++)”. The “Vmax … (++) means 1-2” value [31] was “(++)”, the Vmax, FXa generation assay [32] was over 3 and the Vmax, FXa generation assay [33] was over 3. The “Vmax … (++) means 1-2” value [34] was “(++)”, the Vmax, FXa generation assay [35] was over 3 and the Vmax, FXa generation assay [36] was over 2. The Vmax, FXa generation assay [37] was over 2, the Vmax, FXa generation assay [38] was over 2 and the Vmax, FXa generation assay [39] was over 2. It also gave a Vmax, FXa generation assay [40] of over 3, a Vmax, FXa generation assay [41] of over 2 and a Vmax, FXa generation assay [42] of over 2. For the same substance, the KM (nM) of hFIXa for FX [43] was 99 nM, the Vmax, FXa generation assay with hFIXa [43] was over 0.6 and the kcat (min^-1) of hFIXa for FX, scrambled control at 10.0 µM [43] was 0.00044 min⁻¹. It also gave a Vmax, FXa generation assay [44] of over 2, a Vmax, FXa generation assay [45] of over 2 and a Vmax, FXa generation assay [46] of over 3. For the same substance, the “Vmax … (++) means 1-2” value [47] was “(++)”.
